Substrate in this data set: O=[N+]([O-])c1ccc(O[C@H]2O[C@H](CO)[C@H](O)[C@H](O)[C@H]2O)cc1
The data set can be described thus: purified protein. The settings on record: optimized conditions: 37 °C, pH 6.0, 10 min, 0-8 mM substrate.

The text below walks through data of publication PMC12610585.

By Km is commonly meant the substrate concentration at which the rate is half of its maximum.

B1: Amuc_0517 (Akkermansia muciniphila ATCC BAA-835) (protein)
chain: QPRTTAILPVPGEKACRLPLPPYQAFCWFSADRGRWPGDGNRVLPWFGRTAPGNLLDSKPNPSTAKPGDHAMFALFHLKDGNFMAVLPVAAPDSLAWLKLERDGTFLVEAGSLGTSPAKPQAVLAVTATDKDIYRACSAVWDKALSLPFIKGRTLPREKKIYPEPFKYLGWCSWEQYKKNISSKLLEETARKLEASPVPVRWMLVDDGFQTQERLQLVSFQPRQDQFPRGWQPLMKHKSPKLKWMGLWHCYYGLWNGIHPRHRLDDETARGLVRTAKGKILPGDGSGGAGAFYTPFLQSVKDTGFDFVKIDVQAEYLKHADGLDNPVRHNTKCSEALEQACLKTGLSLVNCMAQGTVNIQNTRYSAVTRCSIDYKLGDEAMAKSHILQSYANTLWLGQTVWPDHDMFHSTDPACARLMAVSKAVSGGPVYLSDPADKLNPENIMPLVWSDGLLLRPLAPAVPLPDSVFPDALNENRLYRVIAPLPGQSAAVVVYNLKHPSPAEPVRGKISLEDYKNAAALLNGNAAEAYASLPAEGIAAYSAEGGRALTPAQPDLDVELTGFKDRLFIMAPIVQGWAVIGRRDKFLSPCALVSAPGYRENGLRFRVKESGPVVIWRGKGPVKAGNTPVRNLGNGFYELQFPVSDHPLDITVTAE
Turning to B1, the Michaelis constant (Km) was found to be 8.2 mM.
